The values that follow come from patent US20150344570A1 (published 2015).

Holding throughout (test): SPR (Biacore); KD of H240-Kn033/H240-Hl033/L73-k0 divided by KD of this variant
Test [1] has as its target T1, FcgRIIIaF (human, UniProt P08637 17-208).
T1 construct: extracellular domain; also called FcγRIIIa F; 3aF; not shown: His tag attached to the C terminus
Here is the method:
(§1) H240-Kn204/H240-Hl211/L73-k0 and H240-Kn205/H240-Hl212/L73-k0 were prepared according to the method of Reference Example 1, by combining H240-Kn204 as one of the H chains and L73-k0 as the L chains with H240-Hl211 as the other H chain, and by combining H240-Kn205 as one of the H chains and L73-k0 as the L chains with H240-Hl212 as the other H chain, and then expressing them. The binding of the prepared variants to FcgRIa, FcgRIIaR, FcgRIIaH, FcgRIIb, FcgRIIIaF, and FcgRIIIaV was measured according to the method of Reference Example 8.
(§2) “fold 2aR”, “fold 2aH”, “fold 2b”, “fold 3aF”, and “fold 3aV” show the relative binding activity of each variant to FcgRIIaR, FcgRIIaH, FcgRIIb, FcgRIIIaF, and FcgRIIIaV, respectively, when the binding activity of H240-Kn033/H240-Hl033/L73-k0, a variant produced by introducing only alterations that promote formation of a heterodimerized antibody into a native IgG1, is defined as 1. Specifically, they are values obtained by dividing the KD value of H240-Kn033/H240-Hl033/L73-k0 for each FcgR by the KD value of an individual variant for each FcgR.
(§3) Analysis of interaction between objective antibody and the FcγR was carried out using Biacore T100 (GE Healthcare), Biacore T200, Biacore A100, and Biacore 4000. HBS-EP+ (GE Healthcare) was used as the running buffer, and the measurement temperature was set to 25° C. Chips produced by immobilizing the antigen peptide by the amine coupling method to a Series S sensor Chip CM5 (GE Healthcare), chips produced by allowing preliminarily biotinylated antigen peptides to interact with and immobilize onto a Series S Sensor Chip SA (certified) (GE Healthcare), chips produced by immobilizing Protein L (ACTIGEN, BioVision) to Series S Sencor Chip CM5 (GE Healthcare), or chips produced by immobilizing Protein A/G (Thermo Scientific) to Series S Sencor Chip CM5 (GE Healthcare) were used. Antibodies of interest were captured onto these chips, and allowed to interact to each FcγR diluted with running buffer.

Test [2] addresses T2, FcgRIIaH (human, UniProt P12318 34-217).
T2 construct: extracellular domain; also called FcγRIIa H; FcgRIIa type H; not shown: His tag attached to the C terminus
T2 sequence (looked up): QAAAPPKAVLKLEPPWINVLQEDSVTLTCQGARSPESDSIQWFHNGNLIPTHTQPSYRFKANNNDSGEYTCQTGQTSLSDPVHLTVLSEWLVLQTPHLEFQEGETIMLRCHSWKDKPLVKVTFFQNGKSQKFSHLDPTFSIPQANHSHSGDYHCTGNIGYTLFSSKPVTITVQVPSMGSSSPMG
Here is the method: as §1, §2, §3

Test [3] addresses T3, FcgRIIb (human, UniProt P31994 43-217).
T3 construct: extracellular domain; also called FcγRIIb; 2b; not shown: His tag attached to the C terminus
T3 sequence (looked up): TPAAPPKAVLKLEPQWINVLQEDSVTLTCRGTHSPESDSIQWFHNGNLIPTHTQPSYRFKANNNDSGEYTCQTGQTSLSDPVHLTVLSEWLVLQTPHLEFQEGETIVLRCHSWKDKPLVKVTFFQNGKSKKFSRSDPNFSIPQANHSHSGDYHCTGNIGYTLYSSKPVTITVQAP
As to the method: as §1, §2, §3

The target in test [4] is T4, FcgRIIaR (human, UniProt P12318 34-217).
T4 construct: extracellular domain; also called FcγRIIa R; FcgRIIa type R; not shown: His tag attached to the C terminus
T4 sequence (looked up): T2 sequence (looked up) with H134R
Here is the method: as §1, §2, §3

In test [5] the target is T5, FcgRIIIaV (human, UniProt P08637 17-208).
T5 construct: extracellular domain; also called FcγRIIIa V; 3aV; not shown: His tag attached to the C terminus
T5 sequence (P08637 17-208 F176V limits assumed): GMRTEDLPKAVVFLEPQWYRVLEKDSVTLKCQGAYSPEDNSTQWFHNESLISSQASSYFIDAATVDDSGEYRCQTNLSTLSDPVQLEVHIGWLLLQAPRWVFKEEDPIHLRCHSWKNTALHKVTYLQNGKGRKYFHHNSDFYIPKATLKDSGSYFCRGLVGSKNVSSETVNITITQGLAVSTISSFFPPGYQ
As to the method:
as §1, §2, §3

Positions count from the first letter of the chain named. Numbers in names are those of the source.

T1 sequence (P08637 17-208): as the sequence (P08637 17-208 F176V limits assumed) above, with V160F counted along it

B1: H240-Kn200/H240-Hl076/L73-k0 (antibody, human IgG1, kappa)
heavy 1: QDQLVQSGAEVKKPGASVKVSCKASGFNIKDTYIQWVRQAPGQGLEWMGRIDPLRKQTKYREKFEGRVTITADTSTNTAYMELSSLRSEDTAVYYCVRSGREFDYWGQGTLVTVSSASTKGPSVFPLAPSSKSTSGGTAALGCLVKDYFPEPVTVSWNSGALTSGVHTFPAVLQSSGLYSLSSVVTVPSSSLGTQTYICNVNHKPSNTKVDKKVEPKSCDKTHTCPPCPAPESQWGPMVFLFPPKPKDTLMISRTPEVTCVVVDVSDEEPEVKFNWYVDGVEVHNAKTKPREEQYNATYRVVSVLTVLHQDWLNGKEYKCKVSNKALPAPIEKTISKAKGQPREPQVCTLPPSRDELTKNQVSLWCLVKGFYPSDIAVEWESNGQPENNYKTTPPVLDSDGSFFLYSKLTVDKSRWQQGNVFSCSVMHEALHNHYTQKSLSLSP
heavy 2: QDQLVQSGAEVKKPGASVKVSCKASGFNIKDTYIQWVRQAPGQGLEWMGRIDPLRKQTKYREKFEGRVTITADTSTNTAYMELSSLRSEDTAVYYCVRSGREFDYWGQGTLVTVSSASTKGPSVFPLAPSSKSTSGGTAALGCLVKDYFPEPVTVSWNSGALTSGVHTFPAVLQSSGLYSLSSVVTVPSSSLGTQTYICNVNHKPSNTKVDKKVEPKSCDKTHTCPPCPAPELLGGPSVFLFPPKPKDTLMISRTPEVTCVVVDVSHEEPEVKFNWYVDGVEVHNAKTKPREEQYNSTYRVVSVLTVLHQDWLNGKEYKCKVSNDALPMPIEETISKAKGQPREPQVYTLPPSRCELTKNQVSLSCAVKGFYPSDIAVEWESNGQPENNYKTTPPVLDSDGSFFLVSKLTVDKSRWQQGNVFSCSVMHEALHNHYTQKSLSLSP
light: DIQMTQSPSSLSASVGDRVTITCRASQDIHKYIAWYQQKPGQAPRLLIQYTSTLQPGVPSRFSGSGSGTDYTFTISSLQPEDIATYYCLQYEQLRTFGGGTKVEIKRTVAAPSVFIFPPSDEQLKSGTASVVCLLNNFYPREAKVQWKVDNALQSGNSQESVTEQDSKDSTYSLSSTLTLSKADYEKHKVYACEVTHQGLSSPVTKSFNRGEC
notes: Anti-epiregulin heterodimerized IgG1, knobs-into-holes
With B1, the “fold 3aF” value in test [1] stood at 121 fold. Moreover, the “fold 2aH” value in test [2] was determined as 2.3 fold. Moreover, the “fold 2b” value in test [3] was determined as 0.5 fold. Also, the “fold 2aR” value in test [4] worked out at 0.9 fold. Moreover, the “fold 3aV” value in test [5] is 81.4 fold.

B2: H240-Kn204/H240-Hl211/L73-k0 (antibody, human IgG1, kappa)
heavy 1: B1 heavy 1 with S233Y, Q234L, W235G, M238S, D267H, E269D, K289Y, Y295W, A297S
heavy 2: B1 heavy 2 with S238D, E269D, D325K, E333V
light: B1 light
notes: Anti-epiregulin heterodimerized IgG1, knobs-into-holes; L234Y/K290Y/Y296W in one H chain, S239D/A330M/K334V in the other
As to B2, the “fold 3aF” value in test [1] was found to be 20.7 fold. For the same molecule, the “fold 2aH” value in test [2] was 0.7 fold. Moreover, in test [3], the “fold 2b” value turned out to be 2.5 fold. Moreover, the “fold 2aR” value in test [4] was found to be 1.2 fold. The “fold 3aV” value in test [5] amounted to 6.5 fold.

B3: H240-Kn208/H240-Hl076/L73-k0 (antibody, human IgG1, kappa)
heavy 1: B1 heavy 1 with S233D
heavy 2: B1 heavy 2
light: B1 light
notes: as for B1
Consider B3, for which the “fold 3aF” value in test [1] stood at 161 fold. The “fold 2aH” value in test [2] was determined as 1.7 fold. For the same molecule, the “fold 2b” value in test [3] was determined as 1 fold. Further, in test [4], the “fold 2aR” value amounted to 1.5 fold. Also, in test [5], the “fold 3aV” value turned out to be 120 fold.

B4: H240-Kn210/H240-Hl076/L73-k0 (antibody, human IgG1, kappa)
heavy 1: B1 heavy 1 with S233I
heavy 2: B1 heavy 2
light: B1 light
notes: as for B1
In the case of B4, the “fold 3aF” value in test [1] amounted to 161 fold. Moreover, in test [2], the “fold 2aH” value is 3.5 fold. The “fold 2b” value in test [3] came out at 0.8 fold. For the same molecule, in test [4], the “fold 2aR” value was determined as 1.3 fold. Besides, the “fold 3aV” value in test [5] was determined as 98 fold.

B5: H240-Kn212/H240-Hl076/L73-k0 (antibody, human IgG1, kappa)
heavy 1: B1 heavy 1 with S233T
heavy 2: B1 heavy 2
light: B1 light
notes: as for B1
For the molecule B5, in test [1], the “fold 3aF” value was 138 fold. The “fold 2aH” value in test [2] was determined as 2.3 fold. In addition, the “fold 2b” value in test [3] amounted to 0.6 fold. Besides, the “fold 2aR” value in test [4] stood at 1.2 fold. Besides, in test [5], the “fold 3aV” value was 82.8 fold.

B6: H240-Kn211/H240-Hl076/L73-k0 (antibody, human IgG1, kappa)
heavy 1: B1 heavy 1 with S233M
heavy 2: B1 heavy 2
light: B1 light
notes: as for B1
Take B6: in test [1], the “fold 3aF” value is 153 fold. Further, in test [2], the “fold 2aH” value came to 2.6 fold. Besides, the “fold 2b” value in test [3] worked out at 0.8 fold. Also, the “fold 2aR” value in test [4] amounted to 1.3 fold. The “fold 3aV” value in test [5] came out at 92.3 fold.

B7: H240-Kn201/H240-Hl076/L73-k0 (antibody, human IgG1, kappa)
heavy 1: B1 heavy 1 with S233F
heavy 2: B1 heavy 2
light: B1 light
notes: as for B1
With B7, in test [1], the “fold 3aF” value stood at 161 fold. The “fold 2aH” value in test [2] came out at 3.7 fold. Also, the “fold 2b” value in test [3] is 0.6 fold. In addition, the “fold 2aR” value in test [4] amounted to 1 fold. Besides, in test [5], the “fold 3aV” value is 133 fold.

B8: H240-Kn205/H240-Hl212/L73-k0 (antibody, human IgG1, kappa)
heavy 1: B1 heavy 1 with S233Y, Q234L, W235G, M238S, D267H, E269D, Y295W, A297C
heavy 2: B1 heavy 2 with S238D, E269D, D325K, M329A, E333V
light: B1 light
notes: Anti-epiregulin heterodimerized IgG1, knobs-into-holes; L234Y/Y296W/S298C in one H chain, S239D/K334V in the other
For the molecule B8, in test [1], the “fold 3aF” value was found to be 24.2 fold. Moreover, the “fold 2aH” value in test [2] stood at 1.4 fold. Besides, in test [3], the “fold 2b” value amounted to 2.1 fold. Besides, the “fold 2aR” value in test [4] was 1.2 fold. For the same molecule, the “fold 3aV” value in test [5] turned out to be 11.4 fold.

B9: H240-Kn202/H240-Hl076/L73-k0 (antibody, human IgG1, kappa)
heavy 1: B1 heavy 1 with S233E
heavy 2: B1 heavy 2
light: B1 light
notes: as for B1
For the molecule B9, the “fold 3aF” value in test [1] was determined as 181 fold. Further, the “fold 2aH” value in test [2] was 1.4 fold. The “fold 2b” value in test [3] turned out to be 0.8 fold. The “fold 2aR” value in test [4] was determined as 1.2 fold. The “fold 3aV” value in test [5] stood at 126 fold.

B10: H240-Kn203/H240-Hl068/L73-k0 (antibody, human IgG1, kappa)
heavy 1: B1 heavy 1 with S233F, Q234Y, E269D, A326D
heavy 2: B1 heavy 2 with M329K
light: B1 light
notes: as for B1
Regarding B10, the “fold 3aF” value in test [1] was 85.3 fold. Also, the “fold 2aH” value in test [2] worked out at 10.6 fold. Moreover, the “fold 2b” value in test [3] stood at 12.2 fold. The “fold 2aR” value in test [4] is 16.1 fold. Besides, the “fold 3aV” value in test [5] came out at 63.2 fold.

B11: H240-Kn207/H240-Hl076/L73-k0 (antibody, human IgG1, kappa)
heavy 1: B1 heavy 1 with S233V
heavy 2: B1 heavy 2
light: B1 light
notes: as for B1
B11: the “fold 3aF” value in test [1] turned out to be 153 fold. Moreover, the “fold 2aH” value in test [2] worked out at 3.1 fold. Also, the “fold 2b” value in test [3] was determined as 0.6 fold. Further, in test [4], the “fold 2aR” value was 1.1 fold. Moreover, the “fold 3aV” value in test [5] amounted to 98 fold.

B12: H240-Kn209/H240-Hl076/L73-k0 (antibody, human IgG1, kappa)
heavy 1: B1 heavy 1 with S233Q
heavy 2: B1 heavy 2
light: B1 light
notes: as for B1
Take B12: the “fold 3aF” value in test [1] turned out to be 121 fold. For the same molecule, in test [2], the “fold 2aH” value turned out to be 2.1 fold. In test [3], the “fold 2b” value is 0.4 fold. The “fold 2aR” value in test [4] amounted to 0.6 fold. In test [5], the “fold 3aV” value amounted to 77.4 fold.
